Measured values reported in US20220380738.

Experiments:
[1] = system: CbAgo (Clostridium butyricum); assay: cleavage_in_vitro; conditions: 5'-phosphate
[2] = target: T1, RecC protein (wild type, N-terminal 6xHis tag), P07648
T1 chain: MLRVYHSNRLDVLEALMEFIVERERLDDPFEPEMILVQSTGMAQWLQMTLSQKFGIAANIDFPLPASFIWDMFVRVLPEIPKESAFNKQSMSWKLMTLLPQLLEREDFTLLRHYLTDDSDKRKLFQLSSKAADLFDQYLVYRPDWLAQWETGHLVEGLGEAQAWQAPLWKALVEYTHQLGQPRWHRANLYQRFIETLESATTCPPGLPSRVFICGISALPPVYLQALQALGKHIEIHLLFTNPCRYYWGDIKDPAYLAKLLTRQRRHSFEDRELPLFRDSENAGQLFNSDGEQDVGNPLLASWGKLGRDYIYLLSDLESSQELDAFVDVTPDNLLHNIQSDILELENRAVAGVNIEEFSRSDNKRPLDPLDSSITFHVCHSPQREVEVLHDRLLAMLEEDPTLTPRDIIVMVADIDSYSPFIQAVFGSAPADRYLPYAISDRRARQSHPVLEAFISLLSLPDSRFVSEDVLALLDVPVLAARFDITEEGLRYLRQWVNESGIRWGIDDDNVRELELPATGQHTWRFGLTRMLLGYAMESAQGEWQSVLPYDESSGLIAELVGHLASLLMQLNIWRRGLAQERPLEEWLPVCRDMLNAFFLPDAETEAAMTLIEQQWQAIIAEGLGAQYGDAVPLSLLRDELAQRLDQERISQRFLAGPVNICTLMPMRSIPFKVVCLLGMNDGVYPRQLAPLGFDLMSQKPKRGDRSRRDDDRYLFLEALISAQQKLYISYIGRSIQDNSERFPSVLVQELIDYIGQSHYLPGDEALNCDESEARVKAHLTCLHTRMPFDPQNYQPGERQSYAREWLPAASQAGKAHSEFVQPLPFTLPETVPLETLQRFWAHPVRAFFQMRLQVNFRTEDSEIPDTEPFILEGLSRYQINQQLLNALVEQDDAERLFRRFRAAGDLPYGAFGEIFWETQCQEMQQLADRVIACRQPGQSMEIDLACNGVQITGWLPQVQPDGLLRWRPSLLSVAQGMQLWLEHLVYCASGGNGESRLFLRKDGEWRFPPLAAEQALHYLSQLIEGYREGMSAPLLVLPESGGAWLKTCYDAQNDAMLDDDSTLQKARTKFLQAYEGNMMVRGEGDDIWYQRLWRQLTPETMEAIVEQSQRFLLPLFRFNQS

“AGTGCTGAGGTTGACTTAGTT / GTTTGCTGATGAACTAAGTCAACCTCAGCATCAACCTTGCGAGTCATTTCTTT [T2-A1 ; ss-phiX174]” showed an activity ([1]; 16 min, 37 C) of 35 % cleaved.

For “CGCAAGGTTAGTGCTGAGGTT / GTTTGCTGATGAACTAAGTCAACCTCAGCATCAACCTTGCGAGTCATTTCTTT [T1-C1 ; ss-phiX174]”, the activity ([1]; 16 min, 37 C) was 50 % cleaved.

In the case of “GTGCTGAGGTTGACTTAGTTC / GTTTGCTGATGAACTAAGTCAACCTCAGCATCAACCTTGCGAGTCATTTCTTT [T2-G1 ; ss-phiX174]”, the activity ([1]; 4 min, 37 C) is reported as 80 % cleaved.

Molecule “TCGCAAGGTTAGTGCTGAGGT / GTTTGCTGATGAACTAAGTCAACCTCAGCATCAACCTTGCGAGTCATTTCTTT [T1 ; ss-phiX174]” has an activity ([1]; 4 min, 37 C) of 74 % cleaved.

In the case of “TGACTGCGATCCTGCAT / GCTAGATAGATTGACAGATTACTCAAGCAGGCATGCAGGATCGCAGTCAGATTTATGTGTCATATAGTACGTGATTCAAG / CTTGAATCACGTACTATATGACACATAAATCTGACTGCGATCCTGCATGCCTGCTTGAGTAATCTGTCAATCTATCTAGC [B12 ; 80 bp blunt substrate]”, the activity ([1]; with RecdeltaB-C helicase, 15 min, 2-fold more with added CbuRecQ) is reported as 25 % cleaved.

B1: RecB^exo- (full-length nuclease deficient RecB DNA helicase variant, E1020A/D1080A/K1082A, N-terminal 6xHis tag) (protein)
chain: MSDVAETLDPLRLPLQGERLIEASAGTGKTFTIAALYLRLLLGLGGSAAFPRPLTVEELLVVTFTEAATAELRGRIRSNIHELRIACLRETTDNPLYERLLEEIDDKAQAAQWLLLAERQMDEAAVFTIHGFCQRMLNLNAFESGMLFEQQLIEDESLLRYQACADFWRRHCYPLPREIAQVVFETWKGPQALLRDINRYLQGEAPVIKAPPPDDETLASRHAQIVARIDTVKQQWRDAVGELDALIESSGIDRRKFNRSNQAKWIDKISAWAEEETNSYQLPESLEKFSQRFLEDRTKAGGETPRHPLFEAIDQLLAEPLSIRDLVITRALAEIRETVAREKRRRGELGFDDMLSRLDSALRSESGEVLAAAIRTRFPVAMIDEFQDTDPQQYRIFRRIWHHQPETALLLIGDPKQAIYAFRGADIFTYMKARSEVHAHYTLDTNWRSAPGMVNSVNKLFSQTDDAFMFREIPFIPVKSAGKNQALRFVFKGETQPAMKMWLMEGESCGVGDYQSTMAQVCAAQIRDWLQAGQRGEALLMNGDDARPVRASDISVLVRSRQEAAQVRDALTLLEIPSVYLSNRDSVFETLEAQEMLWLLQAVMTPERENTLRSALATSMMGLNALDIETLNNDEHAWDVVVEEFDGYRQIWRKRGVMPMLRALMSARNIAENLLATAGGERRLTDILHISELLQEAGTQLESEHALVRWLSQHILEPDSNASSQQMRLESDKHLVQIVTIHKSKGLEYPLVWLPFITNFRVQEQAFYHDRHSFEAVLDLNAAPESVDLAEAERLAEDLRLLYVALTRSVWHCSLGVAPLVRRRGDKKGDTDVHQSALGRLLQKGEPQDAAGLRTCIEALCDDDIAWQTAQTGDNQPWQVNDVSTAELNAKTLQRLPGDNWRVTSYSGLQQRGHGIAQDLMPRLDVDAAGVASVVEEPTLTPHQFPRGASPGTFLHSLFEDLDFTQPVDPNWVREKLELGGFESQWEPVLTEWITAVLQAPLNETGVSLSQLSARNKQVAMEFYLPISEPLIASQLDTLIRQFDPLSAGCPPLEFMQVRGMLKGFIDLVFRHEGRYYLLAYASNWLGEDSSAYTQQAMAAAMQAHRYDLQYQLYTLALHRYLRHRIADYDYEHHFGGVIYLFLRGVDKEHPQQGIYTTRPNAGLIALMDEMFAGMTLEEA
For B1, the “DNA unwinding activity (DpnI-based helicase assay, capillary electrophoresis)” value [2] was “RecB^exo- alone is a weak DNA helicase, but its unwinding activity significantly increases after interaction with RecC protein”.
